Consider 14 sequences from the supplement of paper PMC12764529.

Data set [1] in a line: folding stability dG unfold from trypsin proteolysis; higher = more stable. In short, it runs like this:
(§1)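 Unfolding free energy was derived, per protease or combined, by relating Bayesian-fitted K50 values from sequencing counts to a sequence-predicted unfolded-state K50 and a shared folded-state K50. The underlying digests exposed cysteine-free mini-proteins under 80 residues, in a PA-tagged cDNA display construct, to trypsin and chymotrypsin at 11 threefold-diluted concentrations and to a no-protease condition. A filter kept only designs with AlphaFold2 dimer inter-PAE above 15.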

Data set [2] can be described thus: folding stability dG unfold from chymotrypsin proteolysis; higher = more stable. In short, it runs like this: as §1
A short description of data set [3]: folding stability dG unfold (combined trypsin and chymotrypsin); higher = more stable. The essentials:
as §1

± gives the half width of the 95% confidence interval.

Consider “SAGGSAGGSAMPGKTYRVRIRLYNEETGELVEERELEVETLDELKEAAEKEGWKIVEIEVESAGGSAGGSAG [r3_423_TrROS_Hall]”, for which the “folding stability dG unfold” value is 3.14 ± 0.14 kcal/mol in data set [1], 3.49 ± 0.11 kcal/mol in data set [2] and 3.36 ± 0.19 kcal/mol in data set [3].
Take “SAGGSAGGSAMPGQKVRLTDELKKAGLEIEEAEVVEVDGKLYIRVNGKIIEIDADAIEEIEPSAGGSAGGSA [r18_445_TrROS_Hall]”: the “folding stability dG unfold” value turned out to be 0.366 ± 0.13 kcal/mol in data set [1], 1.43 ± 0.037 kcal/mol in data set [2] and 1.11 ± 0.1 kcal/mol in data set [3].
For “SAGGSAGGSAMPKVTIKITVYNAETGELRTVTLTLPEEDMSLEEIAAALPPGWRIVKVELLSAGGSAGGSAG [r3_80_TrROS_Hall]”, the “folding stability dG unfold” value in data set [1] came to 3.46 ± 0.077 kcal/mol; in data set [2] it was 4.65 ± 0.074 kcal/mol; in data set [3], 4.34 ± 0.075 kcal/mol.
On to “SAGGSAGGSAMPLEKVIKNLTSSGSVESLKEKLAKEYGVEKVEVTKDPNSDTYSAKVFLKKPSAGGSAGGSA [r18_275_JUSTAS]”, for which the “folding stability dG unfold” value in data set [1] is -0.147 ± 0.18 kcal/mol; in data set [2], -0.0178 ± 0.31 kcal/mol; in data set [3], 0.131 ± 0.15 kcal/mol.
On to “SAGGSAGGSAMPPDAKPVRTETDPATGTTTEYILYPDSDTTIRKTHLPDGSVQVEEFSVSKTSAGGSAGGSA [r18_521_JUSTAS]”, for which the “folding stability dG unfold” value in data set [1] is -0.743 ± 0.15 kcal/mol; in data set [2], -0.491 ± 0.17 kcal/mol; in data set [3], -0.491 ± 0.29 kcal/mol.
“SAGGSAGGSAMPPLISTTPILGEEPGKRLVREIVTLPDGSLIELTYDEDGNVIESKKYIVGKSAGGSAGGSA [r18_467_JUSTAS]”: the entries for the “folding stability dG unfold” value in data set [1], in data set [2] and in data set [3] were 0.132 ± 0.041 kcal/mol, 1.22 ± 0.037 kcal/mol and 0.94 ± 0.049 kcal/mol, respectively.
As for “SAGGSAGGSAMPTYDNPDSLSIEEVKEKVAKEAKEKYPGKSNITVPVKFSDGTEYTVTIKIESAGGSAGGSA [r18_449_JUSTAS]”, the “folding stability dG unfold” value in data set [1] was -0.288 ± 0.05 kcal/mol; in data set [2], -0.771 ± 0.21 kcal/mol; in data set [3], -0.405 ± 0.21 kcal/mol.
In the case of “SAGGSAGGSAMRELVKRAAKNGNPGQKVMIRPPDKRYFPITVEGNKIEPKDLPPGWEVHVISAGGSAGGSAG [r3_244_TrROS]”, the “folding stability dG unfold” value in data set [1] was -0.427 ± 0.39 kcal/mol; in data set [2] it was -0.443 ± 0.3 kcal/mol; in data set [3], -0.37 ± 0.28 kcal/mol.
With “SAGGSAGGSAMRLEIELENGLKIEIELEVNEDGELKMKIKIEPLPPVPEVVVTKVVKLEEESAGGSAGGSAG [r3_15_TrROS_Hall]”, the “folding stability dG unfold” value in data set [1] amounted to 1.72 ± 0.29 kcal/mol; in data set [2], 1.69 ± 0.12 kcal/mol; in data set [3], 1.98 ± 0.39 kcal/mol.
Take “SAGGSAGGSAMSEEERRRRAEEERRKKPPVFKITEITVERDEDGNLRVTFRLEDGSTVTIELSAGGSAGGSA [r18_423_TrROS_Hall]”: the “folding stability dG unfold” value in data set [1] came out at 1.89 ± 0.039 kcal/mol; in data set [2] it was 3.33 ± 0.088 kcal/mol; in data set [3], 2.91 ± 0.14 kcal/mol.
Regarding “SAGGSAGGSAMSPTEAERARPVPVVKTETTVTLDPSGYRVETVTYDGGVTETVVTPLPPELASAGGSAGGSA [r18_192_JUSTAS]”, the “folding stability dG unfold” value in data set [1] was 0.0994 ± 0.04 kcal/mol; in data set [2], -0.143 ± 0.11 kcal/mol; in data set [3], 0.0301 ± 0.085 kcal/mol.
With “SAGGSAGGSAMSVTATVPEKPVTLTYIPPNTVTKTVIDPSTGTTTTTEVNLPPGVVPASLLLSAGGSAGGSA [r18_59_JUSTAS]”, the entries for the “folding stability dG unfold” value in data set [1], in data set [2] and in data set [3] were 0.313 ± 0.05 kcal/mol, -0.191 ± 0.13 kcal/mol and 0.14 ± 0.045 kcal/mol, respectively.
The matching figures for “SAGGSAGGSAMSVVVKYTVLLTDPVTGKTTVVPVTATLPVSDGTAKTIEEIVAEHPNYEILESAGGSAGGSA [r18_267_JUSTAS]”: 1.81 ± 0.068 kcal/mol, 1.3 ± 0.026 kcal/mol and 1.56 ± 0.039 kcal/mol.
The matching figures for “SAGGSAGGSAMTAREIADELVKEGKEVKVTVRRPGEEKEITVTKEGEPLPPGAEIVKIEEVSAGGSAGGSAG [r3_421_TrROS_Hall]”: -0.678 ± 0.19 kcal/mol, 0.187 ± 0.08 kcal/mol and 0.0343 ± 0.14 kcal/mol.
